Test results taken from article PMC5853461, “Transcription factor CitERF71 activates the terpene synthase gene CitTPS16 involved in the synthesis of E-geraniol in sweet orange fruit”.
Where a chain is given by its changes, count along the chain named.

B1: GCC-box-like sequence 2 (dsDNA)
DNA 1: AATTTACAAAATTATAGAAGTCAAATTACGACGTCGTAAATCTGGCGGGACTTTAATGG
DNA 2: CCATTAAAGTCCCGCCAGATTTACGACGTCGTAATTTGACTTCTATAATTTTGTAAATT
B2: mGCC-box-like sequence 2 (dsDNA)
DNA 1: B1 DNA 1 with G47A, G48A, G49A
DNA 2: B1 DNA 2 with C11T, C12T, C13T
B3: GCC-box-like sequence 1 (dsDNA)
DNA 1: GAATGGGCGATAGAGCTCATACTTACCCGCCTCTCTTCACATTCAAACTTCTAATATTA
DNA 2: TAATATTAGAAGTTTGAATGTGAAGAGAGGCGGGTAAGTATGAGCTCTATCGCCCATTC
B4: mGCC-box-like sequence 1 (dsDNA)
DNA 1: B3 DNA 1 with C26A, C27A, C28A
DNA 2: B3 DNA 2 with G32T, G33T, G34T

Molecular target: CitERF71 (Citrus sinensis Osbeck (Newhall sweet …, UniProt A0A067HCL9 1-233))
Assay: EMSA; LightShift Chemiluminescent EMSA kit per manufacturer and Nieuwenhuizen et al. 2015; buffer, salt, pH and temperature not stated
Settings: protein: recombinant; tags: N-terminal 6xHN (His) tag; label: 3' biotin; blunt

Chain of CitERF71 (Citrus sinensis Osbeck (A0A067HCL9 entry or part of it): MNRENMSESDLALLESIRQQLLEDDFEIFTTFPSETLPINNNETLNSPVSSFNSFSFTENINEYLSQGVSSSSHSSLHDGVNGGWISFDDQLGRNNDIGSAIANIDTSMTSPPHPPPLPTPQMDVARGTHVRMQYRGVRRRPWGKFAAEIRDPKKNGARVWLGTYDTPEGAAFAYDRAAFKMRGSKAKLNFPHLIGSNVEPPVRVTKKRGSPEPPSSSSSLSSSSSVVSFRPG

Row | Binder | binding result
1 | B1 | binds
2 | B2 | no binding
3 | B3 | binds
4 | B4 | no binding
